In the supplement of paper PMC9112550, “Optimization of the antimicrobial peptide Bac7 by deep mutational scanning” (BMC Biology, 2022):

Each sequence was assayed on Escherichia coli TOP10 (assay: shrunken log2 fold change of peptide-encoding DNA abundance (4.5 h post-induction vs induction); higher = less antimicrobial activity (less host growth inhibition)). Details: time post-induction: 4.5 h; library: site-saturation at positions 5, 18, 19, 20.
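Also: peptides expressed intracellularly from a pBAD plasmid library in pooled LB shake-flask culture, induced with 0.3% L-arabinose, DNA abundance read by NGS, three biological replicates, DESeq2 with apeglm shrinkage.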

Sequence | shrunken log2 fold change
RRIRCRPPRLPRPRPRPKLKPRP | -0.16
RRIRWRPPRLPRPRPRPLIFPRP | -0.215
RRIRNRPPRLPRPRPRPDYCPRP | -0.00677
RRIRIRPPRLPRPRPRPERMPRP | -0.0641
RRIRYRPPRLPRPRPRPGRNPRP | 0.191
RRIRARPPRLPRPRPRPATAPRP | 0.452
RRIRDRPPRLPRPRPRPLVAPRP | 0.912
RRIRARPPRLPRPRPRPPWPPRP | 0.738
RRIRKRPPRLPRPRPRPAFPPRP | 0.165
RRIRGRPPRLPRPRPRPAKWPRP | 0.747
RRIRIRPPRLPRPRPRPIHGPRP | -0.0135
RRIRQRPPRLPRPRPRPLPWPRP | 0.117
RRIRCRPPRLPRPRPRPGYFPRP | -0.394
RRIRVRPPRLPRPRPRPMRMPRP | -0.00559
RRIRIRPPRLPRPRPRPLKKPRP | -0.094
RRIRFRPPRLPRPRPRPGRGPRP | 0.607
RRIRDRPPRLPRPRPRPPQAPRP | 0.268
RRIRGRPPRLPRPRPRPRDLPRP | 0.473
RRIRVRPPRLPRPRPRPHEHPRP | -0.0873
RRIRERPPRLPRPRPRPQTCPRP | -0.0436
RRIRARPPRLPRPRPRPAYDPRP | 0.00165
RRIRCRPPRLPRPRPRPSQIPRP | -0.698
RRIRRRPPRLPRPRPRPQPDPRP | 0.317
RRIRKRPPRLPRPRPRPRFMPRP | 0.102
RRIRMRPPRLPRPRPRPIRHPRP | 0.017

Sequence | shrunken log2 fold change
RRIRARPPRLPRPRPRPKCYPRP | 0.00925
RRIRNRPPRLPRPRPRPDTMPRP | -1.25
RRIRWRPPRLPRPRPRPMKIPRP | -0.0129
RRIRMRPPRLPRPRPRPLTTPRP | 1.06
RRIRRRPPRLPRPRPRPQYTPRP | -0.221
RRIRQRPPRLPRPRPRPECAPRP | 0.407
RRIRNRPPRLPRPRPRPEVIPRP | 0.00635
RRIRNRPPRLPRPRPRPPDHPRP | 0.0887
RRIRQRPPRLPRPRPRPTADPRP | 0.392
RRIRYRPPRLPRPRPRPFIHPRP | -1.54
RRIRCRPPRLPRPRPRPGCCPRP | 0.137
RRIRHRPPRLPRPRPRPLNNPRP | -0.684
RRIRWRPPRLPRPRPRPQCSPRP | 0.221
RRIRVRPPRLPRPRPRPSQAPRP | 0.0916
RRIRHRPPRLPRPRPRPSWMPRP | -0.419
RRIRHRPPRLPRPRPRPRSQPRP | 0.136
RRIRQRPPRLPRPRPRPCPTPRP | -0.13
RRIRARPPRLPRPRPRPYNIPRP | -0.159
RRIRMRPPRLPRPRPRPKGEPRP | 1.27
RRIRPRPPRLPRPRPRPQKAPRP | 1.05
RRIRGRPPRLPRPRPRPMIWPRP | 0.589
RRIRGRPPRLPRPRPRPSSQPRP | 0.099
RRIRFRPPRLPRPRPRPVCLPRP | -0.121
RRIRHRPPRLPRPRPRPPVEPRP | 0.126
RRIRVRPPRLPRPRPRPQKEPRP | -0.178

Sequence | shrunken log2 fold change
RRIRPRPPRLPRPRPRPGPLPRP | 0.193
RRIRCRPPRLPRPRPRPPHSPRP | 0.395
RRIRPRPPRLPRPRPRPNTIPRP | -0.553
RRIRERPPRLPRPRPRPTTAPRP | 0.0732
RRIRWRPPRLPRPRPRPARPPRP | 0.566
RRIRIRPPRLPRPRPRPPREPRP | 0.535
RRIRDRPPRLPRPRPRPWHMPRP | -0.301
RRIRVRPPRLPRPRPRPACTPRP | -0.0478
RRIRCRPPRLPRPRPRPAQCPRP | -0.113
RRIRMRPPRLPRPRPRPVFIPRP | -0.137
RRIRNRPPRLPRPRPRPIPYPRP | -0.0122
RRIRFRPPRLPRPRPRPDGMPRP | -0.0385
RRIRMRPPRLPRPRPRPAIRPRP | -0.0476
RRIRARPPRLPRPRPRPAEAPRP | 0.161
RRIRYRPPRLPRPRPRPHKMPRP | -0.153
RRIRERPPRLPRPRPRPADSPRP | -0.157
RRIRRRPPRLPRPRPRPTEAPRP | 0.0804
RRIRIRPPRLPRPRPRPVCYPRP | -0.633
RRIRLRPPRLPRPRPRPQRFPRP | -0.142
RRIRGRPPRLPRPRPRPYSRPRP | -0.024
RRIRVRPPRLPRPRPRPEHDPRP | -0.249
RRIRRRPPRLPRPRPRPLGNPRP | -0.0268
RRIRNRPPRLPRPRPRPLSRPRP | -0.124
RRIRERPPRLPRPRPRPNAKPRP | -0.134
RRIRCRPPRLPRPRPRPEQVPRP | -0.0491

Sequence | shrunken log2 fold change
RRIRCRPPRLPRPRPRPGVWPRP | 0.537
RRIRLRPPRLPRPRPRPQKQPRP | 0.17
RRIRERPPRLPRPRPRPYISPRP | -0.977
RRIRMRPPRLPRPRPRPFDQPRP | 0.00237
RRIRWRPPRLPRPRPRPMMGPRP | 0.0383
RRIRHRPPRLPRPRPRPMQHPRP | 0.0685
RRIRFRPPRLPRPRPRPCNFPRP | -0.183
RRIRYRPPRLPRPRPRPHFIPRP | -0.214
RRIRTRPPRLPRPRPRPNDRPRP | 0.21
RRIRKRPPRLPRPRPRPTEQPRP | 2.01
RRIRWRPPRLPRPRPRPYFLPRP | -0.757
RRIRMRPPRLPRPRPRPDIWPRP | 1.41
RRIRCRPPRLPRPRPRPWVLPRP | -0.265
RRIRHRPPRLPRPRPRPPNVPRP | -0.0106
RRIRKRPPRLPRPRPRPRYRPRP | -0.0384
RRIRGRPPRLPRPRPRPTCRPRP | 0.825
RRIRQRPPRLPRPRPRPWQNPRP | 0.0546
RRIRPRPPRLPRPRPRPQHIPRP | -0.648
RRIRGRPPRLPRPRPRPDCTPRP | 0.615
RRIRDRPPRLPRPRPRPMKVPRP | -0.0768
RRIRYRPPRLPRPRPRPANCPRP | -0.225
RRIRGRPPRLPRPRPRPMTYPRP | 0.274
RRIRCRPPRLPRPRPRPEEVPRP | 0.362
RRIRFRPPRLPRPRPRPHSVPRP | 0.036
RRIRVRPPRLPRPRPRPVVKPRP | -0.214

Sequence | shrunken log2 fold change
RRIRTRPPRLPRPRPRPWRSPRP | -0.0438
RRIRFRPPRLPRPRPRPSMAPRP | 0.0143
RRIRARPPRLPRPRPRPGRIPRP | 0.148
RRIRHRPPRLPRPRPRPPDDPRP | 0.256
RRIRFRPPRLPRPRPRPMQEPRP | 0.0233
RRIRCRPPRLPRPRPRPQNTPRP | -0.691
RRIRQRPPRLPRPRPRPIFIPRP | -0.472
RRIRFRPPRLPRPRPRPIKYPRP | -0.335
RRIRTRPPRLPRPRPRPREVPRP | 0.442
RRIRHRPPRLPRPRPRPNRLPRP | 0.0234
RRIRMRPPRLPRPRPRPCKNPRP | 4.11
RRIRRRPPRLPRPRPRPPDAPRP | 0.768
RRIRLRPPRLPRPRPRPIAEPRP | 0.591
RRIRSRPPRLPRPRPRPWLYPRP | -0.652
RRIRVRPPRLPRPRPRPNYCPRP | -0.157
RRIRARPPRLPRPRPRPSNAPRP | 0.133
RRIRYRPPRLPRPRPRPEDVPRP | -0.00968
RRIRSRPPRLPRPRPRPVDCPRP | -0.12
RRIRVRPPRLPRPRPRPAEIPRP | -0.0984
RRIRCRPPRLPRPRPRPSWKPRP | -0.0761
RRIRMRPPRLPRPRPRPHVHPRP | 0.0308
RRIRARPPRLPRPRPRPTIAPRP | 0.687
RRIRTRPPRLPRPRPRPKHAPRP | 0.0369
RRIRKRPPRLPRPRPRPEYNPRP | 0.196
RRIRSRPPRLPRPRPRPVQLPRP | 0.348

Sequence | shrunken log2 fold change
RRIRIRPPRLPRPRPRPGTGPRP | 0.0659
RRIRTRPPRLPRPRPRPFKIPRP | -0.0514
RRIRARPPRLPRPRPRPGTYPRP | -0.257
RRIRFRPPRLPRPRPRPGQAPRP | 0.0631
RRIRFRPPRLPRPRPRPWYNPRP | -0.134
RRIRCRPPRLPRPRPRPTDWPRP | 0.169
RRIRSRPPRLPRPRPRPSKGPRP | -0.142
RRIRLRPPRLPRPRPRPIDQPRP | 0.281
RRIRVRPPRLPRPRPRPGVMPRP | -0.261
RRIRCRPPRLPRPRPRPDNIPRP | -0.0703
RRIRRRPPRLPRPRPRPSSSPRP | 0.133
RRIRIRPPRLPRPRPRPRNLPRP | -0.306
RRIRCRPPRLPRPRPRPRAAPRP | 0.779
RRIRNRPPRLPRPRPRPMRPPRP | 0.537
RRIRERPPRLPRPRPRPWCWPRP | 0.315
RRIRKRPPRLPRPRPRPPGSPRP | 0.618
RRIRHRPPRLPRPRPRPFCLPRP | -0.262
RRIRCRPPRLPRPRPRPEKIPRP | 0.117
RRIRMRPPRLPRPRPRPGTNPRP | 1.55
RRIRHRPPRLPRPRPRPFKLPRP | -0.196
RRIRVRPPRLPRPRPRPHCHPRP | -0.105
RRIRERPPRLPRPRPRPCNPPRP | -0.442
RRIRARPPRLPRPRPRPTCIPRP | 0.331
RRIRSRPPRLPRPRPRPVCMPRP | -0.053
RRIRHRPPRLPRPRPRPLAHPRP | 0.0514
